Assay results published in article doi:10.1101/2020.07.27.223248 (bioRxiv, 2020).

Target: the molecule itself
Assay: cryo-EM structure

B1: FljK T103C N130S, straightened flagellar filament (natural protein, C. crescentus, UniProt P18913 1-273, looked up)
chain: MALNSINTNAGAMIALQNLNGTNSELTTVQQRINTGKKIASAKDNGAIWATAKNQSATAASMNAVKDSLQRGQSTIDVALAAGDTITDLLGKMKEKALAASDCSLNTASFNALKSDFDSLRDQIEKAATSAKFNGVSIADGSTTKLTFLANSDGSGFTVNAKTISLAGIGLTTTSTFTTAAAAKTMIGTIDTALQTATNKLASLGTSSVGLDTHLTFVGKLQDSLDAGVGNLVDADLAKESAKLQSLQTKQQLGVQALSIANQSSSSILSLFR
modifications: post-translational modifications on conserved surface threonine residues, likely O-linked glycans (positions not given)
B1: binds.
